Reference: patent US20030145350A1, “Method for increasing the content of fatty acids in plants and micro-organisms” (priority 2000, published 2003)
Read-outs that look alike come from different tables or passages of the source.

Assays:
[1] = target: T1, Cuphea wrightii KAS IIIa (β-ketoacyl ACP synthase IIIa), recombinant wild-type, GenBank U15935 (Cuphea wrightii, UniProt P49244); assay: Inhibition of recombinant wild-type KAS IIIa by acyl ACPs and acyl CoAs ([1-14C] acetate incorporation into acetoacetyl ACP; Lineweaver-Burk); assay type: biochemical
T1 construct: His6 (N); made in house; host or cells: E. coli BL21(DE3)pLys, pET 15b vector
T1 sequence (P49244 68-400 limits assumed): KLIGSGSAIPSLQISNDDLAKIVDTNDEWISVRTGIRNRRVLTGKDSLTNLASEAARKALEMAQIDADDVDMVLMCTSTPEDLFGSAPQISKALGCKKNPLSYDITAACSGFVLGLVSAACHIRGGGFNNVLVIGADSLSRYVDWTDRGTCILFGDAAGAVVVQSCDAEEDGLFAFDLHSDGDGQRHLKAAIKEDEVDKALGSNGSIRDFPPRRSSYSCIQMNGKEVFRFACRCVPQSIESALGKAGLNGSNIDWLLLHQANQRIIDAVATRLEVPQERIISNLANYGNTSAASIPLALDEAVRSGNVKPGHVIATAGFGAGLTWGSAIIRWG
Method: (§1) Wild-type KAS III and KAS IIIa mutants were expressed with a His6-tag at the N-terminus in E. coli strain BL21(DE3)pLys (Novagen, Madison, USA) and purified by nickel affinity chromatography. Purity of the synthesised KAS IIIs was evaluated by SDS-PAGE. The KAS III concentration was determined by the method of Bradford (M. M. Bradford (1976), Anal. Biochem. 72, p. 248-254).
(§2) The activity of KAS IIIa was analysed by the incorporation of radioactive acetate from [1-^14C] acetyl CoA into acetoacetyl ACP (Brück et al. (1996), Planta 198, p. 271-278). The reaction mix (50 μl) contained 100 mM sodium phosphate, pH 7.6, 10 μM [1-^14C] acetyl CoA, 20 μM malonyl ACP and 2 ng of the recombinant KAS IIIa or the KAS IIIa mutant, respectively. The reaction was initiated by adding the enzyme and was performed for a period of 5 minutes at 30° C.
(§3) In the inhibition studies of the wild-type KAS IIIa the used conditions provided for saturation with respect to the substrates acetyl CoA and […]. As regards the inhibitors non-radioactive acyl ACPs (C2-C16) or acyl CoAs (C3-C12) were added at varying concentrations. The resulting data were analysed by the method of Lineweaver-Burk. The inhibition studies of the KAS IIIa mutants with acyl ACPs were performed with 10 μM non-radioactive dodecanoyl ACP (see FIG. 3).
(§4) The KAS III activity was measured as described above in the presence of varying concentrations of acyl ACP (5-25 μM) or of acyl CoA (10-50 μM).
FIG. 2: Kinetic of the inhibition of wild-type KAS III by dodecanoyl ACP. Double reciprocal plots of the concentration of acetyl CoA (A) and malonyl ACP (B) against the activity of KAS III in the absence (●) and presence of 1 μM (▴), 2.5 μM (▪) and 5 μM (▾) dodecanoyl ACP. The respective substrate partner was maintained at a constant level at 10 μM [1-^14C] acetyl CoA and 20 μM malonyl ACP. The enzyme activity was determined by monitoring the incorporation of [1-^14C] acetate from [1-^14C] acetyl CoA into β-ketobutyryl ACP (n=8).

[2] = target: recombinant wild-type Cuphea wrightii β-ketoacyl ACP synthase IIIa (cwKAS IIIa) (Cuphea wrightii); assay: inhibition of KAS IIIa enzyme activity ([1-14C] acetyl CoA incorporation), 5-25 µM acyl ACP, Lineweaver-Burk analysis
[3] = system: Cuphea wrightii KAS IIIa mutant Ala361Ser (A294S in the mature protein); assay: Inhibition of KAS IIIa mutant Ala361Ser by dodecanoyl ACP; assay type: biochemical
Method: (§5) Then, three point-mutated KAS IIIs were created by the substitution of asparagine^358 by aspartate, alanine^361 by serine and alanine^362 by proline. The amplification of the overlapping DNA fragments of the KAS III mutants was performed by two separate reactions, which each contained 2 ng K3MK-pGEMT plasmid as template, 2.5 U proof-reading Pfu polymerase, 200 μM dNTPs and 50 pmol of each of the primers in a total volume of 50 μl. Each reaction mix contained a flanking primer (Fse5 or Xho3) and the corresponding mutation primer. […]
as §1
(§6) The activity of KAS IIIa was analysed by the incorporation of radioactive acetate from [1-^14C] acetyl CoA into acetoacetyl ACP (Brück et al. (1996), Planta 198, p. 271-278). […]
(§7) In the inhibition studies of the wild-type KAS IIIa the used conditions provided for saturation with respect to the substrates acetyl CoA and malonyl CoA. […] The resulting data were analysed by the method of Lineweaver-Burk. […]

[4] = system: Cuphea wrightii KAS IIIa mutant Asn358Asp (N291D in the mature protein); assay: Inhibition of KAS IIIa mutant Asn358Asp by dodecanoyl ACP; assay type: biochemical
Method: as §5, §1, §6, §7

[5] = target: Cuphea wrightii KAS IIIa mutant Ala^361Ser (Cuphea wrightii); assay: cell-based or functional assay
[6] = target: Cuphea wrightii KAS IIIa mutant Asn^358Asp (Cuphea wrightii); assay: cell-based or functional assay
wild-type KAS IIIa = target: T2, wild-type KAS IIIa (Cuphea wrightii, UniProt P49244); assay: Inhibition of wild-type KAS IIIa by acyl ACPs and acyl CoAs ([1-14C] acetyl CoA incorporation into acetoacetyl ACP); assay type: biochemical; details: with respect to acetyl CoA or malonyl CoA; Lineweaver-Burk
T2 construct: His6 (N); made in house; host or cells: E. coli BL21(DE3)pLys, vector pET15b
T2 sequence (P49244 68-400 limits assumed): T1 sequence (P49244 68-400 limits assumed)
Method: as §2, §3, §4
FIG. 2: Kinetic of the inhibition of wild-type KAS III by dodecanoyl ACP. […] The enzyme activity was determined by monitoring the incorporation of [1-^14C] acetate from [1-^14C] acetyl CoA into β-ketobutyryl ACP (n=8).

[7] = in the presence of a saturation concentration (10 μM) of dodecanoyl ACP
[8] = acyl CoA 10-50 μM, pH 7.6, 30° C., 5 minutes, Lineweaver-Burk, read-out: Ki (acyl CoAs)

dodecanoyl ACP, sequence (P0A6A8 2-78): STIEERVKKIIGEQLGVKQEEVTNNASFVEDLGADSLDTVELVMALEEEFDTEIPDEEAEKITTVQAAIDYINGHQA
acyl ACP, chain length 16 carbon atoms, sequence (P0A6A8 2-78): as above
acyl ACP, chain length 2 carbon atoms, sequence (P0A6A8 2-78): as above
acyl ACP, chain length 6 carbon atoms, sequence (P0A6A8 2-78): as above
acyl ACP, chain length 8 carbon atoms, sequence (P0A6A8 2-78): as above
acyl ACP, chain length 10 carbon atoms, sequence (P0A6A8 2-78): as above
acyl ACP, chain length 4 carbon atoms, sequence (P0A6A8 2-78): as above
acyl ACP, chain length 14 carbon atoms, sequence (P0A6A8 2-78): as above

## CCCC(=O)SCCNC(=O)CCNC(=O)[C@H](O)C(C)(C)COP(=O)(O)OP(=O)(O)OC[C@H]1O[C@@H](n2cnc3c(N)ncnc32)[C@H](O)[C@@H]1OP(=O)(O)O [acyl CoA C4]
[1]
  Ki: 91.9 ± 0.9 µM

## acyl ACP, chain length 2 carbon atoms
[2]
  Ki: 2.16 µM

## dodecanoyl ACP [listing 1 of 2 here]
[3]; 10 μM dodecanoyl ACP
  inhibition by acyl ACP (in words): almost not at all inhibited
[3]; [7]
  initial activity maintained: about 85%
[4]; 10 μM dodecanoyl ACP
  inhibition by acyl ACP (in words): almost not at all inhibited
[4]; [7]
  initial activity maintained: about 85%

## acyl ACP, chain length 8 carbon atoms
[2]
  Ki: 4.1 µM

## acyl ACP, chain length 4 carbon atoms
[2]
  Ki: 2.9 µM

## dodecanoyl ACP [listing 2 of 2 here]
[2]
  Ki: 0.4 µM
[5]
  initial activity maintained in the presence of a saturation concentration (10 µM) of dodecanoyl ACP: 85%
[6]
  initial activity maintained in the presence of a saturation concentration (10 µM) of dodecanoyl ACP: 85%

## acyl ACP, chain length 14 carbon atoms
[2]
  Ki: 4 µM

## acyl ACP, chain length 10 carbon atoms
[2]
  Ki: 4.1 µM

## dodecanoyl ACP [acyl ACPs 12]
wild-type KAS IIIa
  type of inhibition of KAS IIIa: not competitive

## acyl ACP, chain length 6 carbon atoms
[2]
  Ki: 8 µM

## CCC(=O)SCCNC(=O)CCNC(=O)[C@H](O)C(C)(C)COP(=O)(O)OP(=O)(O)OC[C@H]1O[C@@H](n2cnc3c(N)ncnc32)[C@H](O)[C@@H]1OP(=O)(O)O [acyl CoA C3]
[1]
  Ki: 20.8 ± 0.51 µM

## CCCCCCCC(=O)SCCNC(=O)CCNC(=O)[C@H](O)C(C)(C)COP(=O)(O)OP(=O)(O)OC[C@H]1O[C@@H](n2cnc3c(N)ncnc32)[C@H](O)[C@@H]1OP(=O)(O)O [acyl CoA C8]
[1]; [8]
  Ki: 24.4 ± 0.6 µM

## CCCCCCCCCC(=O)SCCNC(=O)CCNC(=O)[C@H](O)C(C)(C)COP(=O)(O)OP(=O)(O)OC[C@H]1O[C@@H](n2cnc3c(N)ncnc32)[C@H](O)[C@@H]1OP(=O)(O)O [acyl CoA C10]
[1]; [8]
  Ki: 12.5 ± 0.6 µM

## CCCCCCCCCCCC(=O)SCCNC(=O)CCNC(=O)[C@H](O)C(C)(C)COP(=O)(O)OP(=O)(O)OC[C@H]1O[C@@H](n2cnc3c(N)ncnc32)[C@H](O)[C@@H]1OP(=O)(O)O [acyl CoA C12]
[1]; [8]
  Ki: 20 ± 0.7 µM

## CCCCCC(=O)SCCNC(=O)CCNC(=O)[C@H](O)C(C)(C)COP(=O)(O)OP(=O)(O)OC[C@H]1O[C@@H](n2cnc3c(N)ncnc32)[C@H](O)[C@@H]1OP(=O)(O)O [acyl CoA C6]
[1]; [8]
  Ki: 42.7 ± 0.3 µM

## acyl ACP, chain length 16 carbon atoms
[2]
  Ki: 1.3 µM
